Test results as given in US20220289791A1, “LACTATE DEHYDROGENASE INHIBITOR POLYPEPTIDES FOR USE IN THE TREATMENT OF CANCER” (UNIVERSITÉ CATHOLIQUE DE LOUVAIN, priority 2019, published 2022).
*1 amine or outer side, *2 acyl side, *3 side chain or, on linkers, in order; H or OH if unused. Where a SMILES comes first, the peptide text is derived from it. Bridges are numbered along the chain shown (N, C = ends). Where no end group is shown, it is not given here. [ ]: non-standard residue; d: D form. α,α'‑bisbromoxylene = α,α'-bisbromoxylene, a linker that cyclises the cysteines (bisbromoxylene cysteine cyclisation); C6F4(1,4-diyl) = Fc1c(F)c([*:2])c(F)c(F)c1[*:1]; mXylylene = c1cc(C[*:1])cc(C[*:2])c1; oXylylene = c1ccc(C[*:2])c(C[*:1])c1; pXylylene = c1cc(C[*:2])ccc1C[*:1]; Ala(cPr) = N[C@@H](CC1CC1)C(=O)O; tBuAla = CC(C)(C)C[C@H](N)C(=O)O; Aib = CC(C)(N)C(=O)O

The compounds below were run against T1, LDHBtr (Homo sapiens, UniProt P07195) (assay: NMR WaterLOGSY binding screening). Conditions: not given.
Method: All experiments were acquired on a Bruker Ascend Avance III 600 MHz equipped with a broadband cryoprobe (Bruker® GmBH, Germany)
NMR WaterLOGSY was performed on samples prepared in 10% D2O buffer containing 50 mM sodium phosphate buffer, pH 7.6 and 100 mM NaCl. The concentration of LDH subunits was 15-20 μM. Ligand binding was detected using a NMR WaterLOGSY ephogsygpno.2 advance-version sequence with a […]. Water signal suppression was achieved using excitation sculpting scheme and a 50 ms spinlock was used to suppress protein background signal. For each experiment, 512 scans were collected to yield a 16K points FID. NMR WaterLOGSY intensity was corrected by plotting the intensity difference of the ligand NMR WaterLOGSY spectra recorded in the presence and absence of protein.
For NMR WaterLOGSY screening experiments a correction factor was applied to account for slight concentration variation between samples. To do so, 8 scans 1H NMR spectra with 50 ms spinlock were recorded before NMR WaterLOGSY experiments. The intensity ratio of the aliphatic region (0.700 ppm to 0.955 ppm) with and without protein was used as a correction factor to compare the NMR WaterLOGSY intensity of the polypeptides of interest with and without LDH subunits. An arbitrary threshold of 0.1, corresponding to a 10% decrease in the NMR WaterLOGSY signal intensity between the spectra with and without protein, was set to discriminate between binders and non-binders.

T1 sequence (P07195 21-334): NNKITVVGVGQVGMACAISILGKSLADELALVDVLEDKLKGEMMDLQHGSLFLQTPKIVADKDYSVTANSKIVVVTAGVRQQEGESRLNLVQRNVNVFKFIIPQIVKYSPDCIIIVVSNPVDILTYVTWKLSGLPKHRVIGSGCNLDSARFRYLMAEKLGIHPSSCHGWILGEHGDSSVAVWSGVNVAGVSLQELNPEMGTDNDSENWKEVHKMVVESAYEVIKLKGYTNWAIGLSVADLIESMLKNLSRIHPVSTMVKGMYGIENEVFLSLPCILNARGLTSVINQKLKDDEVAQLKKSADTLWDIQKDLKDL

Row | Compound | NMR WaterLOGSY signal / saturation transfer
1 | CC[C@H](C)[C@H](NC(=O)[C@H](CC(C)C)NC(=O)[C@H](CCCCN)NC(=O)[C@H](CCC(=O)O)NC(=O)[C@H](CCCCN)NC(=O)[C@H](CC(C)C)NC(=O)[C@@H](NC(=O)[C@H](C)N)[C@@H](C)O)C(=O)N[C@@H](C)C(=O)N1CCC[C@H]1C(=O)N[C@H](C(=O)N[C@@H](C)C(=O)N[C@@H](CCC(=O)O)C(N)=O)C(C)C [LB13, ATLKEKLIAPVAE] (H-ATLKEKLIAPVAE-NH2; N-terminus assumed) | exact same NMR WaterLOGSY spectrum than LB19

Same assay, conditions: cyclic peptides at 800 μM

Row | Binding using WaterLOGSY (800 μM) | Compound
2 | + (binders) | ACLKECLI [VS-142-BisAlk, cyclic peptide, cysteines alkylated using α,α′ bisbromoxylene]
3 | + (binders) | ACTLKCKLI (linker 2-6 via α,α'‑bisbromoxylene (inferred)) [LT021, cyclic peptide, cysteines alkylated using α,α′ bisbromoxylene]

Same assay, conditions: linear peptides at 800 μM, LDHBtr 15 μM

Row | Compound | Binding using WaterLOGSY (800 μM)
4 | AALKEKLI [LB8-A1, LB8 structural analogue] | − (non-binders)
5 | ATAKEKLI (LB8-A2) [LB8 structural analogue] | + (binders)
6 | ATL(Aib)E(Aib)LI (ATL[Aib]E[Aib]LI; not fully specified (C-terminus)) [LB8-Aib3, LB8 structural analogue] | + (binders)
7 | ATL(Aib)EKLI (ATL[Aib]EKLI; not fully specified (C-terminus)) [LB8-Aib1, LB8 structural analogue] | + (binders)
8 | ATLAEALI (LB8-A3-A5) [LB8 structural analogue] | + (binders)
9 | ATLAEKLI (LB8-A3) [LB8 structural analogue] | + (binders)
10 | ATLKAKLI (LB8-A4) [LB8 structural analogue] | + (binders)
11 | ATLKDQLIYNLLKEEQTPQ (LA19) [linear polypeptide] | + (binders)
12 | ATLKE(Aib)LI (ATLKE[Aib]LI; not fully specified (C-terminus)) [LB8-Aib2, LB8 structural analogue] | + (binders)
13 | ATLKEALI (LB8-A5) [LB8 structural analogue] | + (binders)
14 | ATLKEKL (LB8-AL7) [LB8 structural analogue] | − (non-binders)
15 | ATLKEKLA (LB8-A7) [LB8 structural analogue] | + (binders)
16 | ATLKEKLG (LB8-G8) [LB8 structural analogue] | + (binders)
17 | Ac-ATLKEKLI [Ac-LB8, LB8 structural analogue] | + (binders)
18 | Ac-TLKEKLI [LB8-AcTI7, LB8 structural analogue] | − (non-binders)
19 | GTLKEKLI (LB8-G1) [LB8 structural analogue] | + (binders)
20 | TLKEKLI (LB8-TI7) [LB8-T17, LB8 structural analogue] | − (non-binders)

More lines, now with the values ahead:

Row | Binding using WaterLOGSY (800 μM) | Compound
21 | + (binders) | CC[C@H](C)[C@H](NC(=O)[C@H](CC(C)C)NC(=O)[C@H](CCCCN)NC(=O)[C@H](CCC(=O)O)NC(=O)[C@H](CCCCN)NC(=O)[C@H](CC(C)C)NC(=O)[C@@H](NC(=O)[C@H](C)N)[C@@H](C)O)C(=O)N[C@@H](C)C(=O)N1CCC[C@H]1C(=O)N[C@H](C(=O)N[C@@H](C)C(=O)N[C@@H](CCC(=O)O)C(N)=O)C(C)C [LB13, ATLKEKLIAPVAE] (H-ATLKEKLIAPVAE-NH2; N-terminus assumed)
22 | + (binders) | ATLKDQLI [LA8, linear polypeptide]

The compounds below were run against T1, LDHBtr (assay: Microscale thermophoresis (MST), Example 1). Conditions: linear peptides; read-out: Kd using MST experiment.
Format: binding
Method: MST measurements were performed on a Nanotemper Monolith NT.115 instrument (Nanotemper Technologies®, GmbH) using Red-dye-NHS fluorescent labeling. Each LDH (WT or truncated) sample, purified to homogeneity, was labeled with the Monolith RED-NHS 2nd generation labeling dye according to the supplied protocol (Nanotemper Technologies®, GmbH). Measurements were performed in 50 mM Na-Phosphate pH 7.6 and 100 mM NaCl containing 0.05% Tween-20 in premium treated capillaries (Nanotemper Technologies®, GmbH). The final concentrations of either labeled protein in the assay were 100 nM. The ligands (NADH and peptides) were titrated in 1:1 dilutions following manufacturer's recommendations. All binding reactions were incubated 5′ at room temperature after loading into capillaries. Experiments were performed in triplicates using 40% LED power and medium MST power, LaserOn time was 20 sec, Laser Off time 3 sec. Linear octapeptides were evaluated for their thermophoretic pattern.

Row | Kd [µM] | Compound
23 | > 10000 | CC[C@H](C)[C@H](NC(=O)[C@H](C)NC(=O)[C@H](CCCCN)NC(=O)[C@H](CCC(=O)O)NC(=O)[C@H](CCCCN)NC(=O)[C@H](CC(C)C)NC(=O)[C@@H](NC(=O)[C@H](C)N)[C@@H](C)O)C(N)=O [LB8-A6, ATLKEKAI] (H-ATLKEKAI-NH2)
24 | > 10000 | CC[C@H](C)[C@H](NC(=O)[C@H](CC(C)C)NC(=O)[C@H](CCCCN)NC(=O)[C@H](CCC(=O)O)NC(=O)[C@H](CCCCN)NC(=O)CNC(=O)[C@@H](NC(=O)[C@H](C)N)[C@@H](C)O)C(N)=O [LB8-G3, ATGKEKLI] (H-ATGKEKLI-NH2)

These compounds were tested against truncated LDHB (LDHBtr) (Homo sapiens, UniProt P07195) (assay: Microscale thermophoresis (MST), Example 2, macrocycles against truncated LDHB). Conditions: not given.
Format: binding
Method: MST measurements were performed on a Nanotemper Monolith NT.115 instrument (NanoTemper Technologies®) using Red-dye-NHS fluorescent labeling. Each LDH sample, purified to homogeneity, was labeled with the Monolith Red-dye-NHS 2nd generation labeling dye (NanoTemper Technologies®), according to the manufacturer's instructions. Measurements were performed in 50 mM sodium phosphate, pH 7.6, and 100 mM NaCl containing 0.05% Tween-20 in premium-treated capillaries (NanoTemper Technologies®). The final concentrations of either labeled protein in the assay were 100 nM. The ligands (NADH and peptides) were titrated in 1:1 dilutions following manufacturer's recommendations. All binding reactions were incubated for 5 min at room temperature after loading into capillaries. Experiments were performed in triplicates using 40% LED power, medium MST power, Laser On time 20 s and Laser Off time 3 s. Peptides were evaluated for their thermophoretic pattern, and Kd's were extracted from raw data at a 10 to 20 s MST on time according to manufacturer's instructions. Regarding interaction of 7 with LDH5, Kd was extracted from the raw fluorescence. A denaturation test was performed accordingly to manufacturer recommendation and excluded any nonspecific spectral interaction between 7 and the red-dye. All Kd's of interacting macrocycles and peptides were obtained in triplicate and corrected by taking into account the molecular weight of the TFA counter ion.

truncated LDHB (LDHBtr), sequence (P07195 21-334): as above

Row | Compound | MST binding to LDHBtr
25 | CC[C@H](C)[C@H](NC(=O)[C@H](CC(C)C)NC(=O)[C@H](CCCCN)NC(=O)[C@@H]1CSc2c(F)c(F)c(c(F)c2F)SC[C@H](N)C(=O)N[C@@H]([C@@H](C)O)C(=O)N[C@@H](CC(C)(C)C)C(=O)N[C@@H](CCCCN)C(=O)N1)C(N)=O [CT-44, CT(mlL)KCKLI] (H-CT[tBuAla]KCKLI-NH2; linker 1-5 via C6F4(1,4-diyl); N-terminus assumed) | did not affect the binding properties
26 | CC[C@H](C)[C@H](NC(=O)[C@H](CC1CC1)NC(=O)[C@H](CCCCN)NC(=O)[C@@H]1CSc2c(F)c(F)c(c(F)c2F)SC[C@H](N)C(=O)N[C@@H]([C@@H](C)O)C(=O)N[C@@H](CC(C)C)C(=O)N[C@@H](CCCCN)C(=O)N1)C(N)=O [CT-45, CTLKCK(cpA)I] (H-CTLKCK[Ala(cPr)]I-NH2; linker 1-5 via C6F4(1,4-diyl); N-terminus assumed) | unaltered Kd value, or even a slightly improved Kd value

Same assay, conditions: MST traces at 10 s to 20 s on time

Row | Kd [µM] | Compound
27 | > 1000 | CC[C@H](C)[C@H](NC(=O)[C@H](CC(C)C)NC(=O)[C@H](CCCCN)NC(=O)[C@H](CCC(=O)O)NC(=O)[C@@H]1CSCc2cccc(c2)CSC[C@H](N)C(=O)N[C@@H](C)C(=O)N[C@@H]([C@@H](C)O)C(=O)N[C@@H](CC(C)C)C(=O)N1)C(N)=O [MP6, CATLCEKLI] (H-CATLCEKLI-NH2; linker 1-5 via mXylylene)
28 | 25 | CC[C@H](C)[C@H](NC(=O)[C@H](CC(C)C)NC(=O)[C@H](CCCCN)NC(=O)[C@@H]1CSCc2ccccc2CSC[C@H](N)C(=O)N[C@@H]([C@@H](C)O)C(=O)N[C@@H](CC(C)C)C(=O)N[C@@H](CCCCN)C(=O)N1)C(N)=O [MP8, CTLKCKLI] (H-CTLKCKLI-NH2; linker 1-5 via oXylylene; N-terminus assumed)
29 | 113 | CC[C@H](C)[C@H](NC(=O)[C@H](CC(C)C)NC(=O)[C@H](CCCCN)NC(=O)[C@@H]1CSCc2ccc(cc2)CSC[C@H](N)C(=O)N[C@@H]([C@@H](C)O)C(=O)N[C@@H](CC(C)C)C(=O)N[C@@H](CCCCN)C(=O)N1)C(N)=O [MP9, CTLKCKLI] (H-CTLKCKLI-NH2; linker 1-5 via pXylylene; N-terminus assumed)
30 | 142 | CC[C@H](C)[C@H](NC(=O)[C@H](CC(C)C)NC(=O)[C@H](CCCCN)NC(=O)[C@@H]1CC(=O)NCCCC[C@H](NC(C)=O)C(=O)N[C@@H]([C@@H](C)O)C(=O)N[C@@H](CC(C)C)C(=O)N[C@@H](CCCCN)C(=O)N1)C(N)=O [MP10, Ac-KTLKDKLI] (Ac-KTLKDKLI-NH2; lactam 1-5)
31 | 465 | CC[C@H](C)[C@H](NC(=O)[C@H](CC(C)C)NC(=O)[C@H](CCCCN)NC(=O)[C@@H]1CCC(=O)N[C@@H](C)C(=O)N[C@@H]([C@@H](C)O)C(=O)N[C@@H](CC(C)C)C(=O)N[C@@H](CCCCN)C(=O)N1)C(N)=O [MP11, ATLKEKLI] (ATLKEKLI-NH2; lactam N-5)
